# Source: US20140274782A1, “AFFINITY REAGENTS AND METHODS FOR DETECTION, PURIFICATION, AND PROTEOMIC ANALYSIS OF METHYLATED PROTEINS” (The Board of Trustees of the Leland Stanford Junior …, priority 2013, published 2014)
# Tests used:
# [1] = biological target: LPAL2, G9a-methylated (human) (UniProt Q16609); assay: ProtoArray methylated with G9a SET domain
# [2] = biological target: TGDS, G9a-methylated (human) (UniProt O95455); assay: ProtoArray methylated with G9a SET domain
# [3] = biological target: NME1, G9a-methylated (human) (UniProt P15531); assay: ProtoArray methylated with G9a SET domain
# [4] = biological target: LARP6, G9a-methylated (human) (UniProt Q9BRS8); assay: ProtoArray methylated with G9a SET domain
# Chain of LARP6, G9a-methylated (human) (Q9BRS8 other isoform, or with tags, fused parts or gaps limits assumed): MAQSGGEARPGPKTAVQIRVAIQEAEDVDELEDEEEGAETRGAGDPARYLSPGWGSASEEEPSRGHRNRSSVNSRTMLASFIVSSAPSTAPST
# [5] = biological target: LRRC20, G9a-methylated (human) (UniProt Q8TCA0); assay: ProtoArray methylated with G9a SET domain
# Chain of LRRC20, G9a-methylated (human) (Q8TCA0 whole entry, the tested form may be a part): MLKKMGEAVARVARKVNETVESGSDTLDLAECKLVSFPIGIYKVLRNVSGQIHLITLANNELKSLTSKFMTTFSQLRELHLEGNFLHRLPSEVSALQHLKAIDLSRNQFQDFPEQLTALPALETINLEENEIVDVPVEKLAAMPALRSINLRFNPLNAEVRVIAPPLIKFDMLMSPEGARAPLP
# [6] = biological target: MGC10433 (RNA-binding protein 42), G9a-methylated (human) (UniProt Q9BTD8); assay: ProtoArray methylated with G9a SET domain
# Chain of MGC10433 (RNA-binding protein 42), G9a-methylated (human) (Q9BTD8 whole entry, the tested form may be a part): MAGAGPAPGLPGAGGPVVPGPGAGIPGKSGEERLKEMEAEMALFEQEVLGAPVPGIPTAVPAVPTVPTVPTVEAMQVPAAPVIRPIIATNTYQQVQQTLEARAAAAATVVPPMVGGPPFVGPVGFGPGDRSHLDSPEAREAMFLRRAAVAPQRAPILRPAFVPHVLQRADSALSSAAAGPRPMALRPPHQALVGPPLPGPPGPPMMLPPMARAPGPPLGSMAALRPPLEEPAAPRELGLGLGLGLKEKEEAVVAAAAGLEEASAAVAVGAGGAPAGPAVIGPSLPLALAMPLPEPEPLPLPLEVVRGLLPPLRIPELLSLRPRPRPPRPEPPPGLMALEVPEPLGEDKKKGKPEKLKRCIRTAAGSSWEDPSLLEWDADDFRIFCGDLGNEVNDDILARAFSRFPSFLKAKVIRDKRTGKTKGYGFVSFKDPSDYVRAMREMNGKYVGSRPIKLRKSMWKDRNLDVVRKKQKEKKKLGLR
# [7] = biological target: RAB33B, G9a-methylated (human) (UniProt Q9H082); assay: ProtoArray methylated with G9a SET domain
# Chain of RAB33B, G9a-methylated (human) (Q9H082 whole entry, the tested form may be a part): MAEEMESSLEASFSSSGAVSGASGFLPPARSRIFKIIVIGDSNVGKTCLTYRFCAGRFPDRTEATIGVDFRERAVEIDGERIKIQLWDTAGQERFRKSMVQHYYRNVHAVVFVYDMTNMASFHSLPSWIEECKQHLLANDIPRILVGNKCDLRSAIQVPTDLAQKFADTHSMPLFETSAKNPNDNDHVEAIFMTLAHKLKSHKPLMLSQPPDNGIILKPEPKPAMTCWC
# [8] = biological target: WDR45, G9a-methylated (human) (UniProt Q9Y484); assay: ProtoArray methylated with G9a SET domain
# [9] = biological target: DGKA, G9a-methylated (human) (UniProt P23743); assay: ProtoArray methylated with G9a SET domain
# [10] = biological target: C10orf58, G9a-methylated (human) (UniProt Q9BRX8); assay: ProtoArray methylated with G9a SET domain
# [11] = biological target: RDH11, G9a-methylated (human) (UniProt Q8TC12); assay: ProtoArray methylated with G9a SET domain
# [12] = biological target: PTCD2, G9a-methylated (human) (UniProt Q8WV60); assay: ProtoArray methylated with G9a SET domain
# Chain of PTCD2, G9a-methylated (human) (Q8WV60 whole entry, the tested form may be a part): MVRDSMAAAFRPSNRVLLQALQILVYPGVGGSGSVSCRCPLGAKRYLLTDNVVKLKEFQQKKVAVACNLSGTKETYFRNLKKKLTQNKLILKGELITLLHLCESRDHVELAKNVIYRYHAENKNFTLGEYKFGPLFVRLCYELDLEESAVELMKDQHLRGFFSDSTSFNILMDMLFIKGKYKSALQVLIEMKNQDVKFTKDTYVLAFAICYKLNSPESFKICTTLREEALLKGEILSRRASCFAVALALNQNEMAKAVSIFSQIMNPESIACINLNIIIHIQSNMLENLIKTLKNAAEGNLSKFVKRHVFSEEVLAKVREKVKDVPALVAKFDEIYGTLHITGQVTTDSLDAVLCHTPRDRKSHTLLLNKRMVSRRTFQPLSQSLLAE
# [13] = biological target: TEAD4-TEA domain family member 4 (TEAD4), transcript variant 3 (human) (UniProt Q15561); assay: ProtoArray, GST-treated control array
# Chain of TEAD4-TEA domain family member 4 (TEAD4), transcript variant 3 (human) (Q15561 130-434, change not shown): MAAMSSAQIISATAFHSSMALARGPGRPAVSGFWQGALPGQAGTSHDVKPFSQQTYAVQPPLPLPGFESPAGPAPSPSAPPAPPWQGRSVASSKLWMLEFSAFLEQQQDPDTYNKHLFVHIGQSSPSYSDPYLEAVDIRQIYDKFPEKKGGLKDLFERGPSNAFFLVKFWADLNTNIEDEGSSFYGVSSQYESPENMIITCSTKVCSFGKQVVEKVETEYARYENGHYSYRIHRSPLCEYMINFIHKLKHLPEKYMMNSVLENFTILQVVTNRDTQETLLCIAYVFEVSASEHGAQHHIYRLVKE
# [14] = biological target: LPAL2-lipoprotein, Lp(a)-like 2 (LPAL2), transcript variant 1 (human) (UniProt Q16609); assay: ProtoArray, GST-treated control array
# Chain of LPAL2-lipoprotein, Lp(a)-like 2 (LPAL2), transcript variant 1 (human) (Q16609 22-132, change not shown): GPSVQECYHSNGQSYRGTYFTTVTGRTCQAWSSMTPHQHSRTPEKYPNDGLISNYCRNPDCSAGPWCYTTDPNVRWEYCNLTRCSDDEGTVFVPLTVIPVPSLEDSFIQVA
# [15] = biological target: WDR45-WD repeat domain 45 (WDR45), transcript variant 1 (human) (UniProt Q9Y484); assay: ProtoArray, GST-treated control array
# [16] = biological target: CDK10-cyclin-dependent kinase (CDC2-like) 10 (CDK10), transcript variant a (human) (UniProt Q15131); assay: ProtoArray, GST-treated control array
# [17] = biological target: GYPC-glycophorin C (Gerbich blood group) (GYPC), transcript variant 2 (human) (UniProt P04921); assay: ProtoArray, GST-treated control array
# Chain of GYPC-glycophorin C (Gerbich blood group) (GYPC), transcript variant 2 (human) (P04921 other isoform, or with tags, fused parts or gaps mutant): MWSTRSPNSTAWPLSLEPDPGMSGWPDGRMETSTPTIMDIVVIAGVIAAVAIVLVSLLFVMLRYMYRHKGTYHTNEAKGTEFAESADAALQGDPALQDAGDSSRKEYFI
# [18] = biological target: RTN1-reticulon 1 (RTN1), transcript variant 3 (human) (UniProt Q16799); assay: ProtoArray, GST-treated control array
# [19] = biological target: VPS29-vacuolar protein sorting 29 homolog (S. cerevisiae) (VPS29), transcript variant 1 (human) (UniProt Q9UBQ0); assay: ProtoArray, GST-treated control array
# [20] = biological target: ACSL4-acyl-CoA synthetase long-chain family member 4 (ACSL4), transcript variant 2 (human) (UniProt O60488); assay: ProtoArray, GST-treated control array
# Chain of ACSL4-acyl-CoA synthetase long-chain family member 4 (ACSL4), transcript variant 2 (human) (O60488 whole entry, change not shown, the tested form may be a part): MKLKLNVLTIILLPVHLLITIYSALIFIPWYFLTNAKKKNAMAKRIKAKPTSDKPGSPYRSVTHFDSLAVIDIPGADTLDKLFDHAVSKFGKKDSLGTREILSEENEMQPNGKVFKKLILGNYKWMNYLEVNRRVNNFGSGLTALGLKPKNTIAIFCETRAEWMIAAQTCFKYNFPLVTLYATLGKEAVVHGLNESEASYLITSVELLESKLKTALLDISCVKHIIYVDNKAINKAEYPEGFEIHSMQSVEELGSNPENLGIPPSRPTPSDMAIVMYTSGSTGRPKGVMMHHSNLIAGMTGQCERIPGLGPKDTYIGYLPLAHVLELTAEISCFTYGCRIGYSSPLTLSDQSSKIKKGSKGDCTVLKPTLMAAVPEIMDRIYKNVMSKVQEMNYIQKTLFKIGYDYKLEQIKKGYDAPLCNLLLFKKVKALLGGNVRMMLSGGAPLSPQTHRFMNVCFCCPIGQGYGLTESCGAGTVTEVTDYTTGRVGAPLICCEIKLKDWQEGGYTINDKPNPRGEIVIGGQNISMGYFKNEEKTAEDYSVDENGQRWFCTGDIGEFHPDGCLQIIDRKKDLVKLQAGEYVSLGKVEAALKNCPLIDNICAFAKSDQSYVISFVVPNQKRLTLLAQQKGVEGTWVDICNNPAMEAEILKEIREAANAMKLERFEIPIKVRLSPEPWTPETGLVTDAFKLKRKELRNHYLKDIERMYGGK
# [21] = biological target: LARP6-La ribonucleoprotein domain family, member 6 (LARP6), transcript variant 2 (human) (UniProt Q9BRS8); assay: ProtoArray, GST-treated control array
# Chain of LARP6-La ribonucleoprotein domain family, member 6 (LARP6), transcript variant 2 (human) (Q9BRS8 other isoform, or with tags, fused parts or gaps mutant): as the sequence (Q9BRS8 other isoform, or with tags, fused parts or gaps limits assumed) above
# [22] = biological target: NME1-non-metastatic cells 1, protein (NM23A) expressed in (NME1), transcript variant 2 (human) (UniProt P15531); assay: ProtoArray, GST-treated control array
# [23] = biological target: PPARG-peroxisome proliferator-activated receptor gamma (PPARG), transcript variant 4 (human) (UniProt P37231); assay: ProtoArray, GST-treated control array
# [24] = biological target: DYNC2LI1-dynein, cytoplasmic 2, light intermediate chain 1, mRNA (cDNA clone MGC:12166 IMAGE:3828551), complete cds (human) (UniProt Q8TCX1); assay: ProtoArray, GST-treated control array
# [25] = biological target: CRB3-crumbs homolog 3 (Drosophila) (CRB3), transcript variant 2 (human) (UniProt Q9BUF7); assay: ProtoArray, GST-treated control array
# Chain of CRB3-crumbs homolog 3 (Drosophila) (CRB3), transcript variant 2 (human) (Q9BUF7 27-120, change not shown): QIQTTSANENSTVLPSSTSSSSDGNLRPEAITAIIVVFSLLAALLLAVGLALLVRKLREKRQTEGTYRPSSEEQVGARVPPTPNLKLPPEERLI
# [26] = biological target: MRPL21-mitochondrial ribosomal protein L21 (MRPL21), nuclear gene encoding mitochondrial protein, transcript variant 1 (human) (UniProt Q7Z2W9); assay: ProtoArray, GST-treated control array
# [27] = biological target: CALN1-calneuron 1 (CALN1), transcript variant 1 (human) (UniProt Q9BXU9); assay: ProtoArray, GST-treated control array
# [28] = biological target: NME7-non-metastatic cells 7, protein expressed in (nucleoside-diphosphate kinase) (NME7), transcript variant 2 (human) (UniProt Q9Y5B8); assay: ProtoArray, GST-treated control array
# Chain of NME7-non-metastatic cells 7, protein expressed in (nucleoside-diphosphate kinase) (NME7), transcript variant 2 (human) (Q9Y5B8 37-376, change not shown): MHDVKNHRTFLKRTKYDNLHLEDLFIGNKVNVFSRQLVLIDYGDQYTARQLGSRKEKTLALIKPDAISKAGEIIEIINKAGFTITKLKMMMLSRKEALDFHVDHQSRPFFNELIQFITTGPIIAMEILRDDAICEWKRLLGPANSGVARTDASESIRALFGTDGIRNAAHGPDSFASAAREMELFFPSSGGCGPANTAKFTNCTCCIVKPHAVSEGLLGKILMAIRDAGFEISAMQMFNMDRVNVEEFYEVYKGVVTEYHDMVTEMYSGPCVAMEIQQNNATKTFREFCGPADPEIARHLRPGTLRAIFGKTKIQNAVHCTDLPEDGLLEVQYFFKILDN
# [29] = biological target: PHF20L1-PHD finger protein 20-like 1 (PHF20L1), transcript variant 3 (human) (UniProt A8MW92); assay: ProtoArray, GST-treated control array
# Chain of PHF20L1-PHD finger protein 20-like 1 (PHF20L1), transcript variant 3 (human) (A8MW92 other isoform, or with tags, fused parts or gaps mutant): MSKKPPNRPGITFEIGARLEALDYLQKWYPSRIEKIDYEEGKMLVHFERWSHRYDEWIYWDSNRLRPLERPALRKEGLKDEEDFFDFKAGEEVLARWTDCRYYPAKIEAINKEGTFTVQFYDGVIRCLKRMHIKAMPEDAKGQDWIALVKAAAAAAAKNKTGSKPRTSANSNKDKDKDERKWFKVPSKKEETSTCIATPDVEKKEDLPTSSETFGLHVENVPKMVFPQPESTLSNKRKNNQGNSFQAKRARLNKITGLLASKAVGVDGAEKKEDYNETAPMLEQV
# [30] = biological target: AP1S1-adaptor-related protein complex 1, sigma 1 subunit (AP1S1), transcript variant 1 (human) (UniProt P61966); assay: ProtoArray, GST-treated control array
# Chain of AP1S1-adaptor-related protein complex 1, sigma 1 subunit (AP1S1), transcript variant 1 (human) (P61966 whole entry, change not shown, one chain of several): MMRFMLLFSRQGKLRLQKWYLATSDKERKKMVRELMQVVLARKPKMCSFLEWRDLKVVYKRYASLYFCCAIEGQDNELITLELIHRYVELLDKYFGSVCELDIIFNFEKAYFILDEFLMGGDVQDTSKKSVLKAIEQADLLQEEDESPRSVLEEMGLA
# [31] = biological target: DNTT-deoxynucleotidyltransferase, terminal (DNTT), transcript variant 1 (human) (UniProt P04053); assay: ProtoArray, GST-treated control array
# Chain of DNTT-deoxynucleotidyltransferase, terminal (DNTT), transcript variant 1 (human) (P04053 whole entry, change not shown): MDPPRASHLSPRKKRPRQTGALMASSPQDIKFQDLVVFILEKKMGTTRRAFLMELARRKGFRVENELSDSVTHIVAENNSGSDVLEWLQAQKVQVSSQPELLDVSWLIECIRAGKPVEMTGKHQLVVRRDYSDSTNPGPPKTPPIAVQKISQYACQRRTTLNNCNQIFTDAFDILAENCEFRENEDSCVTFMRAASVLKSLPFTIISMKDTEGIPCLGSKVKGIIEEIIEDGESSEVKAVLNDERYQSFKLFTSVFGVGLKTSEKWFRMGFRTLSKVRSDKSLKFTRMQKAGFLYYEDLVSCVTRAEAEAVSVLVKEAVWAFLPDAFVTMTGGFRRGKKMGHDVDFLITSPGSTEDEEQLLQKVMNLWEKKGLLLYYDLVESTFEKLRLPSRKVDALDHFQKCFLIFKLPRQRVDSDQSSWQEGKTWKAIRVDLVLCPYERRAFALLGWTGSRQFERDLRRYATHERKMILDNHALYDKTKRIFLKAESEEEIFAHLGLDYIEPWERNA
# [32] = biological target: ZNF695-zinc finger protein 695 (ZNF695) (human) (UniProt Q8IW36); assay: ProtoArray, GST-treated control array
# [33] = biological target: PAEP-progestagen-associated endometrial protein (placental protein 14, pregnancy-associated endometrial alpha-2-globulin, alpha uterine protein), transcript variant 2 (PAEP) (human) (UniProt P09466); assay: ProtoArray, GST-treated control array
# Chain of PAEP-progestagen-associated endometrial protein (placental protein 14, pregnancy-associated endometrial alpha-2-globulin, alpha uterine protein), transcript variant 2 (PAEP) (human) (P09466 19-180, change not shown): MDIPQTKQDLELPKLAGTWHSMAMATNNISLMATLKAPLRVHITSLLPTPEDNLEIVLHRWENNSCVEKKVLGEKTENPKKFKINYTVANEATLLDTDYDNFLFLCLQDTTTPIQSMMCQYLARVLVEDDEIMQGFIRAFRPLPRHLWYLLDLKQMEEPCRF
# [34] = biological target: GPX5-glutathione peroxidase 5 (epididymal androgen-related protein) (GPX5), transcript variant 2, mRNA. (human) (UniProt O75715); assay: ProtoArray, GST-treated control array
# [35] = biological target: C1QTNF6-C1q and tumor necrosis factor related protein 6 (C1QTNF6), transcript variant 1 (human) (UniProt Q9BXI9); assay: ProtoArray, GST-treated control array
# [36] = biological target: T1, TMEM32-transmembrane protein 32 (TMEM32) (human) (UniProt Q8N4V1); assay: ProtoArray, GST-treated control array
# T1 sequence (looked up): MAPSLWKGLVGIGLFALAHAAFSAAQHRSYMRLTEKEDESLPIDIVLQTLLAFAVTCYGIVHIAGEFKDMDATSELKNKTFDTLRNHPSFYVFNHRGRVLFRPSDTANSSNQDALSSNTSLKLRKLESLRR
# Chain of TGDS, G9a-methylated (human) (O95455 whole entry, the tested form may be a part): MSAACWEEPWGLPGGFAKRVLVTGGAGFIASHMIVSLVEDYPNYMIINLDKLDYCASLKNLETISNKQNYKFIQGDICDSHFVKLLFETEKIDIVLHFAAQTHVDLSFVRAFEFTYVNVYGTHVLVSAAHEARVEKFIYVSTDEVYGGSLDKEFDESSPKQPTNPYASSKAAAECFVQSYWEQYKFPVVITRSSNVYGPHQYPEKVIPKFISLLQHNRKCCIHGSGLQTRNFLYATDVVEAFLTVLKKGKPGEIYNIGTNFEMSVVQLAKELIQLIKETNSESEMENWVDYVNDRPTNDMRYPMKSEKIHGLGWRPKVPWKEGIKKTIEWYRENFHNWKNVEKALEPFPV
# Chain of LPAL2, G9a-methylated (human) (Q16609 22-132 limits assumed): as the sequence (Q16609 22-132, change not shown) above
substance,measurement,setting,value
3× Flag-3×MBT (designed binder),G9a Average SNR,[1],33.3
same,G9a Average SNR,[2],13.6
same,G9a Average SNR,[3],15.2
same,G9a Average SNR,[4],15.6
same,G9a Average SNR,[5],32.3
same,G9a Average SNR,[6],14.1
same,G9a Average SNR,[7],20.2
same,G9a Average SNR,[8],16.6
same,G9a Average SNR,[9],15.5
same,G9a Average SNR,[10],17
same,G9a Average SNR,[11],26.6
same,G9a Average SNR,[12],19.4
same,GST Average SNR,[13],0.753
same,GST Average SNR,[14],0.282
same,GST Average SNR,[15],1.35
same,GST Average SNR,[16],0.366
same,GST Average SNR,[17],0.081
same,GST Average SNR,[18],0.954
same,GST Average SNR,[19],1.09
same,GST Average SNR,[20],1.41
same,GST Average SNR,[21],-1.03
same,GST Average SNR,[22],1.06
same,GST Average SNR,[23],-0.436
same,GST Average SNR,[24],-0.778
same,GST Average SNR,[25],-0.25
same,GST Average SNR,[26],1.41
same,GST Average SNR,[27],-0.055
same,GST Average SNR,[28],0.543
same,GST Average SNR,[29],1.13
same,GST Average SNR,[30],1.2
same,GST Average SNR,[31],0.378
same,GST Average SNR,[32],1.5
same,GST Average SNR,[33],0.998
same,GST Average SNR,[34],-0.0425
same,GST Average SNR,[35],-0.38
same,GST Average SNR,[36],1.5
